The values below come from patent US10626154B2, “Binding domains directed against GPCR:G protein complexes and uses derived thereof” (VIB VZW, priority 2011, dated 2020).

Entries after “also recorded” stand apart in the source; their conditions may differ. Where two headings read alike, the source gives them in different places.

Data set [1] has as its target T1, β2AR-365:Gs complex (UniProt P04896+P07550, E27Q/G16R/N187E).
T1 construct: A β2AR construct truncated after residue 365; Flag (M1); made in house; host or cells: High 5 insect cells (Gs subunits)
Briefly: analytical gel filtration: stability of the R:G complex in detergents. To be noted: for stability of the R:G complex in detergent: 48 hrs at 4° C. Here is the method: (§1) FIG. 4: Stabilizing effect of MNG-3 on the R:G complex. Panel a) Analytical gel filtration of β2AR-365:Gs complexes purified in DDM (in black), MNG-3 (in blue), or two MNG-3 analogs (in red and green) following incubation for 48 hrs at 4° C. In contrast to DDM the R:G complexes are stable in the MNG detergents. Panel b) Effect of diluting unliganded purified β2AR in DDM or MNG-3 below the critical micelle concentration (CMC) of the detergent as assayed by 3H-dihydro alprenolol (3H-DHA) saturation binding.
One challenge for crystallogenesis was to prepare a stable β2AR:Gs complex in detergent solution. The β2AR and Gs couple efficiently in lipid bilayers, but not in detergents used to solubilize and purify these proteins (Example 1). […] Apyrase, a non-selective purine pyrophosphatase, was added to hydrolyze GDP released from Gs on forming a complex with the β2AR. The complex was subsequently purified by sequential antibody affinity chromatography and size exclusion chromatography. The stability of the complex was enhanced by exchanging it into a recently developed maltose neopentyl glycol detergent (NG-310, Anatrace) (Chae et al., 2010).

A further data set addresses T2, unliganded purified β2AR (Homo sapiens, UniProt P07550).
T2 construct: made in house
Briefly: 3H-DHA saturation binding after dilution of detergent below the CMC. To be noted: diluted 1000-fold below the CMC; DDM after 20 sec, MNG-3 after 24 hrs. Here is the method: as §1

Data set [2] addresses T1, β2AR-365:Gs complex. Briefly: analytical gel filtration: effect of nucleotide analogs on the R:G complex. In kind it is biochemical. To be noted: for effect of nucleotides on the β2AR:Gs complex: 0.1 mM (FIG. 3A); for effect of phosphates resembling nucleotide phosphate groups on the complex: 5 mM. The method, then:
FIGS. 3A-3G: Effect of nucleotide analogs, pH, and nanobodies on the stability of the β2AR:Gs complex. […] FIG. 3C, The pH limit was determined to guide the preparation of crystallization screens. For the same purpose the effect of ionic strength (data not shown) was determined using NaCl at various concentrations.
To maintain the high-affinity nucleotide-free state of the complex, apyrase (25 mU/ml, NEB) was added after 90 min to hydrolyze residual GDP released from Gαs upon binding to the receptor.

For data set [3], the target named is T3, AVP:NT4LV2R:Gs complex (Arginine vasopressin receptor 2) (Homo sapiens, UniProt P30518).
T3 construct: The N-terminally fused T4L V2R construct (NT4L-V2R); His tag (only implied by nickel-NTA purification of the receptor); made in house; host or cells: Sf9 (NT4L-V2R); High 5 (Gs); E. coli WK6 (Nb35)
Briefly: SEC stability of the AVP:NT4LV2R:Gs complex. In kind it is biochemical. The method, then:
Arginine vasopressin (AVP), also known as vasopressin, argipressin or antidiuretic hormone, is a natural ligand that activates Arginine vasopressin receptor 2.
Formation of a stable complex (FIG. 19, Panel a) was accomplished by mixing His tagged Gs heterotrimer at approximately 90 μM concentration with AVP bound NT4LV2R (90 μM) and NB35 (100 μM) in 0.1 ml buffer (10 mM HEPES, pH 7.5, 100 mM NaCl, 0.1% DDM, 1 mM EDTA, 3 mM MgCl2, 10 μM AVP) and incubated for 2 hours at room temperature. Next, the AVP:NT4LV2R:Gs complex was purified in two successive affinity purification steps. The purification was monitored by SDS-PAGE (FIG. 19). First, the complex was applied on a Ni-NTA column after adding 300 μl of 1% MNG in 10 mM HEPES, pH 7.5, 100 mM NaCl buffer onto the reaction mix. Following extensive washing with buffer, the complex was eluted in 0.2% MNG, 10 mM HEPES, pH 7.5, 100 mM NaCl AVP 10 μM with 200 mM imidazole. Next the complex was applied on a FLAG-tag affinity column, washed extensively in the same buffer containing 0.01% MNG and eluted with the FLAG-peptide. […] This complex was further purified by SEC on a superdex200 column in 10 mM HEPES, pH 7.5, 100 mM NaCl, 0.01% MNG, 1 mM EDTA, 3 mM MgCl2, 1 μM AVP). […]

The subject of data set [4] is β2AR:Gs:BI167107 ternary complex. Nature of the data set: analytical gel filtration (size exclusion chromatography) of nanobody binding to the ternary complex. Set-up: species or system human β2AR; bovine Gαs, rat Gβ1, rat Gγ2. To be noted: for epitope on the Gs heterotrimer relative to Nb37 (size exclusion chromatography): forms R:G:Nb:Nb37 complex. In general terms: SEC sorts molecules by how far they enter the pores of the column.

A further data set deals with β2AR:Gs:BI167107 complex. Briefly: analytical size exclusion chromatography of the ternary complex in the presence and absence of GTPγS. In kind it is biochemical, human β2AR; bovine Gαs, rat Gβ1, rat Gγ2. Here is the method:
The mutual effects of Nbs and the non-hydrolyzable GTP analog GTPγS on the integrity of the agonist:β2AR:Gs ternary complex was analyzed by analytical size exclusion chromatography in the presence and absence of GTPγS.

A further data set addresses T4, purified Gαs (Bos taurus, UniProt P04896).
T4 construct: made in house
Briefly: Bodipy-GTPγS-FL fluorescence nucleotide binding assay on Gαs. In kind it is biochemical, Bovine. To be noted: 100 nM Bodipy-GTPγS-FL, 1 μM purified Gαs, increasing concentrations of nanobody, 300 seconds. The method, then:
(§2) To investigate the effect of nanobodies (Nb35 and Nb37) on Gs alone, nanobodies were added together with bodipy-GTPγS-FL and various Gs protein preparations in 20 mM Tris-HCl, Ph 8.0, 3 mM MgCl2, 1 mM DTT in a final volume of 200 μL. Samples containing a heterotrimeric Gs protein also included 0.1% DDM. Bodipy-GTPγS-FL is a stable fluorescent GTP analog (λex≈470 nm, λem≈515 nm). Its fluorescence intensity increases upon G protein binding and Bodipy-GTPγS-FL can therefore be used for real-time measurements of nucleotide binding to G proteins (McEwen et al., 2001). Fluorescence was measured in a 96-well microtiter plate format on a M5 fluorescence plate reader (Molecular […]).
In a first experiment (FIG. 16), increasing amounts of Nb37 were incubated with 1 μM purified GαS and 100 nM Bodipy-GTPγS-FL and the fluorescence increase was measured on a short time scale (300 seconds) to minimize the accumulation of the hydrolysis product bodipy-phosphate (Jameson et al., 2005). The Gαs subunit of the heterotrimeric Gs protein was purified as described previously (Sunahara et al., 1997). […] In a similar experiment (FIG. 17), increasing amounts of Nb35 were incubated with 1 μM purified GαS and 100 nM Bodipy-GTPγS-FL.

Data set [5] addresses T5, purified Gsαβγ heterotrimer (UniProt P04896+P54311).
T5 construct: made in house; host or cells: High 5 insect cells
Nature of the data set: Bodipy-GTPγS-FL fluorescence nucleotide binding assay on Gs heterotrimer. In kind it is biochemical, bovine Gαs, rat Gβ1, rat Gγ2. To be noted: 100 nM Bodipy-GTPγS-FL, 1 μM purified Gsαβγ heterotrimer, increasing concentrations of nanobody. The method, then:
as §2
In another experiment (FIG. 18), increasing amounts of Nb35 were incubated with 1 μM of the purified Gs αβγ heterotrimer and 100 nM Bodipy-GTPγS-FL.

For `CCCCCCCCCCCCO[C@@H]1O[C@H](CO)[C@@H](O[C@H]2O[C@H](CO)[C@@H](O)[C@H](O)[C@H]2O)[C@H](O)[C@H]1O` [DDM, n-Dodecyl-β-D-maltoside], the “stability of the R:G complex in detergent” value on β2AR-365:Gs complex [1] is listed as “significant dissociation”. In addition, at unliganded purified β2AR, the “3H-DHA binding of β2AR after dilution of detergent” value is given as “loss in 3H-DHA binding”.

`CCCc1ccccc1OCC(O)CNC(C)C` (stereo not shown) [^3H-dihydro-alprenolol]: the “effect of M96T and M98T receptor mutations on ligand affinity” value in the data set with T4L-β2AR (data not shown) is given as “did not affect ligand binding affinity”.

As to `CCCCCCCCCCC(CCCCCCCCCC)(CO[C@@H]1O[C@H](CO)[C@@H](O[C@H]2O[C@H](CO)[C@@H](O)[C@H](O)[C@H]2O)[C@H](O)[C@H]1O)CO[C@@H]1O[C@H](CO)[C@@H](O[C@H]2O[C@H](CO)[C@@H](O)[C@H](O)[C@H]2O)[C@H](O)[C@H]1O` [MNG-3], the “stability of the R:G complex in detergent” value at β2AR-365:Gs complex [1] is listed as “substantially stabilize the complex; also recorded: stable”. On β2AR-365:Gs complex [1] (room temperature for 24 hours), the “stability of the β2AR:Gs complex in detergent at room temperature” value is listed as “without any noticeable degradation”. Also, on unliganded purified β2AR, the “3H-DHA binding of β2AR after dilution of detergent” value was “maintained full ability to bind the radioligand”.

With `Nc1nc2c(ncn2[C@@H]2O[C@H](COP(=O)(O)OP(=O)(O)OP(O)(O)=S)[C@@H](O)[C@H]2O)c(=O)[nH]1` [GTPγS], at β2AR-365:Gs complex [2], the “effect of nucleotides on the β2AR:Gs complex” value (from here on “effect of nucleotides”) is reported as “causes dissociation of the β2AR-365:Gs complex”.

As to `Nc1nc2c(ncn2[C@@H]2O[C@H](COP(=O)(O)OP(=O)(O)OP(=O)(O)O)[C@@H](O)[C@H]2O)c(=O)[nH]1` [GTP, guanosine triphosphate], the “effect of nucleotides” value at β2AR-365:Gs complex [2] is “disrupt the β2AR:Gs complex”.

Regarding `O=P(O)(O)OP(=O)(O)O` [pyrophosphate], the “effect of phosphates resembling nucleotide phosphate groups on the complex” value at β2AR-365:Gs complex [2] is recorded as “did not cause disruption of the complex”.

On to `CC(C)NCC(O)c1ccc(O)c(O)c1` (stereo not shown) [isoproterenol], for which the “effect of M96T and M98T receptor mutations on ligand affinity” value with T4L-β2AR is given as “two-fold decrease in affinity”.

On to `CCOc1ccc2c(c1)C1(CCC(OCCN3CCOCC3)CC1)C(=O)N2S(=O)(=O)c1ccc(C(=O)NC(C)(C)C)cc1OC` (stereo not shown) [SR121463, reference compound], for which the “effect of antagonist on the AVP:NT4LV2R:Gs complex” value in [3] (10 μM) is “disrupts the AVP:NT4LV2R:Gs complex”.

For `Nc1nc2c(ncn2[C@@H]2O[C@H](COP(=O)(O)OP(=O)(O)O)[C@@H](O)[C@H]2O)c(=O)[nH]1` [GDP, guanosine diphosphate], the “effect of nucleotides” value at β2AR-365:Gs complex [2] is “disrupt the β2AR:Gs complex; also recorded: causes dissociation of the β2AR-365:Gs complex”.

Take `O=C(O)P(=O)(O)O` [forcarnet]: the “effect of phosphates resembling nucleotide phosphate groups on the complex” value at β2AR-365:Gs complex [2] is “did not cause disruption of the complex”.

B1: Nb37: nanobody, SEQ ID NO: 4, binds the Gsα subunit (protein, listed as Lama glama)
VHH: QVQLQESGGGFVQAGGSLRLSCAASGSIFSKNTMAWFRQAPGKERELVAASPTGGSTAYKDSVKGRFTISRDSAKNTVLLQMNVLKPEDTAVYYCHLRQNNRGSWFHYWGQGTQVTVSSHHHHHHEPEA
Turning to B1, the “binding to the β2AR:Gs:BI167107 ternary complex by analytical gel filtration” value (“binding … by analytical gel filtration” below) in data set [4] is “further confirmed”. The “protection of the ternary complex from dissociation by GTPγS” value (from here on “protection of the ternary complex”) in the data set on β2AR:Gs:BI167107 complex was “insensitive to GTPγS treatment”; in the data set on β2AR:Gs:BI167107 complex (listed as 37), “protect the β2AR:Gs:BI167107 complex from dissociation”. Also, the “effect on GTPγS binding to Gαs alone” value with purified Gαs is reported as “blocks GTPγS binding to Gsα alone in a dose dependent manner; also recorded: inhibits GTPγS binding to Gαs”.

B2: Nb36: nanobody, SEQ ID NO: 3, binds Gs (protein, listed as Lama glama)
VHH: QVQLQESGGGSVQAGGSLRLSCTVSGTIFSVTVMGWYRQAPGKQRELVAGFTNTRNTNYVDSVKGRFTISKDSAKNTMYLQMNSLKPEDTAVYYCNVRRWGGTNWNDYWGQGTQVTVSSHHHHHHEPEA
For B2, in [4], the “binding … by analytical gel filtration” value is given as “further confirmed” and the “epitope on the Gs heterotrimer relative to Nb37 (size exclusion chromatography)” value is listed as “bind separate epitopes”. Besides, the “protection of the ternary complex” value in the data set with β2AR:Gs:BI167107 complex is reported as “less sensitive to GTPγS treatment”. In the data set on β2AR:Gs:BI167107 complex (listed as 36), the “protection of the ternary complex” value is “protect the β2AR:Gs:BI167107 complex from dissociation”.

B3: Nb35: nanobody, SEQ ID NO: 1; binds Gs at the interface of Gα and Gβ subunits (protein, listed as Lama glama)
VHH: QVQLQESGGGLVQPGGSLRLSCAASGFTFSNYKMNWVRQAPGKGLEWVSDISQSGASISYTGSVKGRFTISRDNAKNTLYLQMNSLKPEDTAVYYCARCPAPFTRDCFDVTSTTYAYRGQGTQVTVSSHHHHHHEPEA
For B3, in data set [4], the “binding … by analytical gel filtration” value was “further confirmed”. The “epitope on the Gs heterotrimer relative to Nb37 (size exclusion chromatography)” value in data set [4] is on record as “bind separate epitopes”. The “protection of the ternary complex” value in the data set with β2AR:Gs:BI167107 complex is listed as “protects the complex from dissociation by GTPγS; also recorded: insensitive to GTPγS treatment”; with β2AR:Gs:BI167107 complex (listed as 35) it was “protect the β2AR:Gs:BI167107 complex from dissociation”. Further, in the data set with purified Gαs, the “effect on GTPγS binding to Gαs alone” value is on record as “has no effect on GTPγS binding; also recorded: does not affect GTPγS binding to Gαs”. Also, in [5], the “effect on GTPγS binding to the Gsαβγ heterotrimer” value is listed as “blocks GTPγS binding to the free Gsαβγ heterotrimer in a dose dependent manner; also recorded: inhibits GTPγS binding to the Gsαβγ heterotrimer”. Moreover, in data set [3] (complex of V2R, Gs, Nb35 and AVP), the “stability of the V2R:Gs:AVP complex with nanobody in SEC” value was “demonstrated the stability of this complex in SEC”.
